Assay results reported in PMC5944358 (The Biochemical journal, 2018).
Where two headings read alike, the source gives them in different places.

Assays:
HIV-1 YU2 gp120 [1] = biological target: T1, HIV-1 YU2 gp120 (HIV-1 YU2, UniProt P35961 32-498); experiment: ELISA
HIV-1 YU2 gp120 [2] = biological target: T1, HIV-1 YU2 gp120; experiment: ITC
HIV-1 YU2 gp120 [3] = biological target: T1, HIV-1 YU2 gp120; experiment: SPR
HIV-1 YU2 gp120 [4] = biological target: T1, HIV-1 YU2 gp120; experiment: SPR; remark: listed apart in the source

Row | Binder | IC50 (HIV-1 YU2 gp120 [1]) | Kd (HIV-1 YU2 gp120 [2]) | stoichiometry N (HIV-1 YU2 gp120 [2]) | Kd (HIV-1 YU2 gp120 [3]) | koff (HIV-1 YU2 gp120 [4]) | kon (HIV-1 YU2 gp120 [4]) | Kd (HIV-1 YU2 gp120 [4]) | k1 (step 1, association) (HIV-1 YU2 gp120 [4]) | k2 (step 2, forward) (HIV-1 YU2 gp120 [4]) | k-1 (step 1, dissociation) (HIV-1 YU2 gp120 [4]) | k-2 (step 2, reverse) (HIV-1 YU2 gp120 [4]) | koff (HIV-1 YU2 gp120 [3]) | kon (HIV-1 YU2 gp120 [3])
1 | Microvirin (MVN) (natural protein) MPNFSHTCSSINYDPDSTILSAECQARDGEWLPTELRLSDHIGNIDGELQFGDQNFQETCQDCHLEFGDGEQSVWLVCTCQTMDGEWKSTQILLDSQIDNNDSQLEIG | 68 ± 8 nM | 225 ± 10 nM | 1.29 ± 0.04 protein:gp120 | 120 nM | 0.000445 s⁻¹ | 4160 M⁻¹ s⁻¹ |  |  |  |  |  |  | 
2 | MVN_Q81K (natural protein) MPNFSHTCSSINYDPDSTILSAECQARDGEWLPTELRLSDHIGNIDGELQFGDQNFQETCQDCHLEFGDGEQSVWLVCTCKTMDGEWKSTQILLDSQIDNNDSQLEIG |  |  |  |  | 0.000368 s⁻¹ | 9180 M⁻¹ s⁻¹ | 45 nM | 1.73e+06 M⁻¹ s⁻¹ | 0.0048 M⁻¹ s⁻¹ | 0.16 s⁻¹ | 0.0023 s⁻¹ |  | 
3 | MVN_G43E/Q81K (natural protein) MPNFSHTCSSINYDPDSTILSAECQARDGEWLPTELRLSDHIENIDGELQFGDQNFQETCQDCHLEFGDGEQSVWLVCTCKTMDGEWKSTQILLDSQIDNNDSQLEIG |  |  |  |  | 0.000173 s⁻¹ | 1660 M⁻¹ s⁻¹ | 120 nM | 180000 M⁻¹ s⁻¹ | 0.0082 M⁻¹ s⁻¹ | 0.064 s⁻¹ | 0.0027 s⁻¹ |  | 
4 | MVN_G43E/G85Q (natural protein) MPNFSHTCSSINYDPDSTILSAECQARDGEWLPTELRLSDHIENIDGELQFGDQNFQETCQDCHLEFGDGEQSVWLVCTCQTMDQEWKSTQILLDSQIDNNDSQLEIG |  |  |  |  | 0.000122 s⁻¹ | 710 M⁻¹ s⁻¹ | 180 nM | 90000 M⁻¹ s⁻¹ | 0.0077 M⁻¹ s⁻¹ | 0.051 s⁻¹ | 0.0024 s⁻¹ |  | 
5 | MVN_G43E/Q81K/M83R/G85Q (natural protein) MPNFSHTCSSINYDPDSTILSAECQARDGEWLPTELRLSDHIENIDGELQFGDQNFQETCQDCHLEFGDGEQSVWLVCTCKTRDQEWKSTQILLDSQIDNNDSQLEIG |  |  |  |  | 0.000156 s⁻¹ | 1490 M⁻¹ s⁻¹ | 100 nM | 240000 M⁻¹ s⁻¹ | 0.0063 M⁻¹ s⁻¹ | 0.078 s⁻¹ | 0.002 s⁻¹ |  | 
6 | MVN(Q81K/M83R) (natural protein) MPNFSHTCSSINYDPDSTILSAECQARDGEWLPTELRLSDHIGNIDGELQFGDQNFQETCQDCHLEFGDGEQSVWLVCTCKTRDGEWKSTQILLDSQIDNNDSQLEIG |  | 75 ± 11 nM | 1.31 ± 0.132 protein:gp120 |  | 3.3e-05 s⁻¹ | 1880 M⁻¹ s⁻¹ | 21 nM | 310000 M⁻¹ s⁻¹ | 0.0051 M⁻¹ s⁻¹ | 0.03 s⁻¹ | 0.0011 s⁻¹ |  | 
7 | MVN_G43E (natural protein) MPNFSHTCSSINYDPDSTILSAECQARDGEWLPTELRLSDHIENIDGELQFGDQNFQETCQDCHLEFGDGEQSVWLVCTCQTMDGEWKSTQILLDSQIDNNDSQLEIG |  |  |  |  | 0.00061 s⁻¹ | 2020 M⁻¹ s⁻¹ | 360 nM | 340000 M⁻¹ s⁻¹ | 0.0049 M⁻¹ s⁻¹ | 0.244 s⁻¹ | 0.0025 s⁻¹ |  | 
8 | MVN_M83R (natural protein) MPNFSHTCSSINYDPDSTILSAECQARDGEWLPTELRLSDHIGNIDGELQFGDQNFQETCQDCHLEFGDGEQSVWLVCTCQTRDGEWKSTQILLDSQIDNNDSQLEIG |  |  |  |  | 0.000145 s⁻¹ | 2990 M⁻¹ s⁻¹ | 52 nM | 290000 M⁻¹ s⁻¹ | 0.0076 M⁻¹ s⁻¹ | 0.05 s⁻¹ | 0.0029 s⁻¹ |  | 
9 | MVN_G85Q (natural protein) MPNFSHTCSSINYDPDSTILSAECQARDGEWLPTELRLSDHIGNIDGELQFGDQNFQETCQDCHLEFGDGEQSVWLVCTCQTMDQEWKSTQILLDSQIDNNDSQLEIG |  |  |  |  | 0.000191 s⁻¹ | 2960 M⁻¹ s⁻¹ | 72 nM | 290000 M⁻¹ s⁻¹ | 0.0089 M⁻¹ s⁻¹ | 0.071 s⁻¹ | 0.0027 s⁻¹ |  | 
10 | MVN_Q81K/M83R/G85Q (natural protein) MPNFSHTCSSINYDPDSTILSAECQARDGEWLPTELRLSDHIGNIDGELQFGDQNFQETCQDCHLEFGDGEQSVWLVCTCKTRDQEWKSTQILLDSQIDNNDSQLEIG |  |  |  |  | 0.000232 s⁻¹ | 3240 M⁻¹ s⁻¹ | 77 nM | 340000 M⁻¹ s⁻¹ | 0.0055 M⁻¹ s⁻¹ | 0.058 s⁻¹ | 0.0041 s⁻¹ |  | 
11 | MVN_Q81K/G85Q (natural protein) MPNFSHTCSSINYDPDSTILSAECQARDGEWLPTELRLSDHIGNIDGELQFGDQNFQETCQDCHLEFGDGEQSVWLVCTCKTMDQEWKSTQILLDSQIDNNDSQLEIG |  |  |  |  | 9.4e-05 s⁻¹ | 880 M⁻¹ s⁻¹ | 101 nM | 160000 M⁻¹ s⁻¹ | 0.0041 M⁻¹ s⁻¹ | 0.053 s⁻¹ | 0.00178 s⁻¹ |  | 
12 | MVN_G43E/M83R (natural protein) MPNFSHTCSSINYDPDSTILSAECQARDGEWLPTELRLSDHIENIDGELQFGDQNFQETCQDCHLEFGDGEQSVWLVCTCQTRDGEWKSTQILLDSQIDNNDSQLEIG |  |  |  |  | 0.000103 s⁻¹ | 980 M⁻¹ s⁻¹ | 130 nM | 110000 M⁻¹ s⁻¹ | 0.0075 M⁻¹ s⁻¹ | 0.045 s⁻¹ | 0.0023 s⁻¹ |  | 
13 | cyanovirin-N (CVN) (natural protein) LGKFSQTCYNSAIQGSVLTSTCERTNGGYNTSSIDLNSVIENVDGSLKWQPSNFIETCRNTQLAGSSELAAECKTRAQQFVSTKINLDDHIANIDGTLKYE |  |  |  | 8.65 nM |  |  |  |  |  |  |  | 1.48e-05 s⁻¹ | 1710 M⁻¹ s⁻¹
